Test results taken from publication doi:10.1101/2020.03.20.999888 (bioRxiv, 2020).

T1: GspM (P. aeruginosa, UniProt P25061 1-174)
T1 sequence: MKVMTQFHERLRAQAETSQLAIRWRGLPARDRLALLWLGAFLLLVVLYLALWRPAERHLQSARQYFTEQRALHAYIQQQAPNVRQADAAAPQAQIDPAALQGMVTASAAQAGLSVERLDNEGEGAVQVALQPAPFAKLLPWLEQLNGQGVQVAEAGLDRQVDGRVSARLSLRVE


Columns and labels:
SEC-MALS = target: the molecule itself; assay: SEC-MALS
GspM = target: T1, GspM; assay: SEC-MALS

Binder	stoichiometry N (SEC-MALS)	stoichiometry N (GspM)
GspL^peri (domain or fragment) WQLQREGDRYAAQSAELYRQLFPEDRKLINLRAQFDQHLADSASSGGEGQLLGLLGQAATVIGGEPTVSVEQLDFSAARGDVALQVRAPGFDVLERLRSRLSESGLAVQLGSASRDGSTVSARLVIGG	2	–
GspL (natural protein) MSGVSALFLPPASTAGADGELAVWWVQDGECRRAPFAQALAEIRAPWRLYLPVEAVTACAVNLPTQKARWLRQSLPFAVEEQLADDVEQMHLALGPALADGRHRVFAVQRTWLAAWLALAEGAGKAPASLHVDADCLPGEGSCLFWLEERWLLGGSGAVRLACGSEDWPVLRDSCPPPQRAFAAQEVAPLEGVEVQALAGNPHVWLSEQPLGTDLAQAEFAARQQSSQWRRWRPLLGLVGLWLVLQWGFTLVQAWQLQREGDRYAAQSAELYRQLFPEDRKLINLRAQFDQHLADSASSGGEGQLLGLLGQAATVIGGEPTVSVEQLDFSAARGDVALQVRAPGFDVLERLRSRLSESGLAVQLGSASRDGSTVSARLVIGG	–	1 GspL per GspM (printed as 2:2)
